Data on three molecules can be found in patent US20040248240A1.

Experiment in all cases: cell-based or functional assay
Assay [1] concerns the target rat brain type IIA α sub-unit of the voltage-gated sodium channel (rat) (UniProt P04775).
For assay [2] the target is unchanged. The source holds these as a separate data set.
For assay [3] the target is unchanged. This is another data set of the same source.

Read-outs that look alike come from different tables or passages of the source.

UniProt P04775, sequence (P04775 whole entry): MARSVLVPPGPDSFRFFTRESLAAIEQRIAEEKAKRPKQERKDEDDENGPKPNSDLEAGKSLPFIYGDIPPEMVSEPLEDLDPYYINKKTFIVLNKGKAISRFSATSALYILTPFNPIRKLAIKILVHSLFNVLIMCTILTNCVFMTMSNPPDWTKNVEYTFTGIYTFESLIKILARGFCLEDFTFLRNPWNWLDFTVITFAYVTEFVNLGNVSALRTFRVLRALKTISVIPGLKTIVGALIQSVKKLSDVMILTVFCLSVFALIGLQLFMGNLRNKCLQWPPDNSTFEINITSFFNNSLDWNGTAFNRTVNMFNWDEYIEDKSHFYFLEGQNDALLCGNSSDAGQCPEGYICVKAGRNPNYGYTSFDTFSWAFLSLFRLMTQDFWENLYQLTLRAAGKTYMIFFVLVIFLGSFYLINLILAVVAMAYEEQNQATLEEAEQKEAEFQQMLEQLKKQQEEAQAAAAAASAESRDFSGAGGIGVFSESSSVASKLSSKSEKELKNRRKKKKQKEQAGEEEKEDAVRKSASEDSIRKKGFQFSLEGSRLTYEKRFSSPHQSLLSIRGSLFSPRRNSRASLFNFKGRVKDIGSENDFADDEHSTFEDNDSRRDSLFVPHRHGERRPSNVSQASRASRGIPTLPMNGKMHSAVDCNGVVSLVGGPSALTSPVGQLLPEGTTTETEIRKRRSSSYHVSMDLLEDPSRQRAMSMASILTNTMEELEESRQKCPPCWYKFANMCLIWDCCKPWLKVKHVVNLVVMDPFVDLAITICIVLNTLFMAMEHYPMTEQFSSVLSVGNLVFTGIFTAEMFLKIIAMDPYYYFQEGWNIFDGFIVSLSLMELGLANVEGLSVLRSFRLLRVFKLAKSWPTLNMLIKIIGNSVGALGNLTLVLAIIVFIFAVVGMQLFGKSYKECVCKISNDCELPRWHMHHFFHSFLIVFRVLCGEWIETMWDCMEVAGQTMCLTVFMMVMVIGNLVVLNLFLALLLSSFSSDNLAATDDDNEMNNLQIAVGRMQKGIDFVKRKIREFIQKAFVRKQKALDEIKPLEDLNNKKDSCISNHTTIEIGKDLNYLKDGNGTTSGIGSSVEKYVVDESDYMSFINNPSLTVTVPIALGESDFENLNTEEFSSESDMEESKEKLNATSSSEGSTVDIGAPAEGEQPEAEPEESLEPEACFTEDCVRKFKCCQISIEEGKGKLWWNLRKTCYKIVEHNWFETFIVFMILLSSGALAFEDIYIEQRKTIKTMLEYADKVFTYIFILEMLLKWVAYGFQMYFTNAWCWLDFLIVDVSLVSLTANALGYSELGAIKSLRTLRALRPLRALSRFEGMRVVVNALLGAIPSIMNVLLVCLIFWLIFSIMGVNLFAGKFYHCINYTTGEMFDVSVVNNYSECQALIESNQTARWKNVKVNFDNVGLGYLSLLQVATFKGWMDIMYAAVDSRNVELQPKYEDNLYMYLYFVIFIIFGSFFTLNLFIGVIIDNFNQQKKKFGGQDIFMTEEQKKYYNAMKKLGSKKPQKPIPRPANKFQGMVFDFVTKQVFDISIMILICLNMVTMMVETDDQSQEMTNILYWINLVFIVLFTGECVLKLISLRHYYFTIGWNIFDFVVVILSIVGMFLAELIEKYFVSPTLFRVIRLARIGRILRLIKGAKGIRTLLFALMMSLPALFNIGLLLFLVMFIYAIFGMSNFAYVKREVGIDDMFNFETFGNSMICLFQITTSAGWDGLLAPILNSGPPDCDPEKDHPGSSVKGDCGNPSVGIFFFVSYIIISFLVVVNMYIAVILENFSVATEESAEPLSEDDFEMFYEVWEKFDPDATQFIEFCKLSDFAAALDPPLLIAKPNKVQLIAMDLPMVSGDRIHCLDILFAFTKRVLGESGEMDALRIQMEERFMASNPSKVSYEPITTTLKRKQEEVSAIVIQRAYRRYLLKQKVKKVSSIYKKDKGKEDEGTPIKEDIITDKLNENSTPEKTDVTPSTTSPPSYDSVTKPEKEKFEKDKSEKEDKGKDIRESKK

In assay [1], “rat voltage-gated sodium channel β1 sub-unit (from UniProt Q00954 19-218)” had an Inactivation timecourse, Percentage in fast mode of 95%; an Inactivation timecourse, time constant 1 of 1.4 ms; an Inactivation timecourse, time constant 2 of 24.7 ms; a Recovery from inactivation, Percentage in fast mode of 84%. Moreover, in assay [1], the Recovery from inactivation, time constant 1 was 2 ms; the Recovery from inactivation, time constant 2 amounted to 148 ms; the Voltage-dependence of inactivation, V½ (mV) was -49.1 mV; the Voltage-dependence of inactivation, k (mV) was 5.9 mV. In assay [1], this molecule registered an inactivation time constant 1 at -10 mV (two-electrode voltage clamp, oocytes) of 1.3 ms and an inactivation time constant 2 at -10 mV (two-electrode voltage clamp, oocytes) of 22.7 ms.

B1: human voltage-gated sodium channel β3 sub-unit (protein)
chain: FPVCVEVPSETEAVQGNPMKLRCISCMKREEVEATTVVEWFYRPEGGKDFLIYEYRNGHQEVESPFQGRLQWNGSKDLQDVSITVLNVTLNDSGLYTCNVSREFEFEAHRPFVKTTRLIPLRVTEEAGEDFTSVVSEIMMYILLVFLTLWLLIEMIYCYRKVSKAEEAAQENASDYLAIPSENKENSAVPVEE
In assay [2], B1 showed an inactivation time constant 1 of 1 ms and an inactivation time constant 2 of 9.1 ms.

B2: rat voltage-gated sodium channel β3 sub-unit (protein)
chain: VCVEVPSETEAVQGNPMKLRCISCMKREEVEATTVVEWFYRPEGGKDFLIYEYRNGHQEVESPFQGRLQWNGSKDLQDVSITVLNVTLNDSGLYTCNVSREFEFEAHRPFVKTTRLIPLRVTEEAGEDFTSVVSEIMMYILLVFLTLWLFIEMIYCYRKVSKAEEAAQENASDYLAIPSENKENSVVPVEE
Consider B2, for which, in assay [3], the Recovery from inactivation, time constant 1 is 1.9 ms and the Recovery from inactivation, time constant 2 is 198 ms. For the same molecule, in assay [2], the Inactivation timecourse, Percentage in fast mode is 85%; the Inactivation timecourse, time constant 1 amounted to 1.5 ms; the Inactivation timecourse, time constant 2 was determined as 24.7 ms; the Recovery from inactivation, Percentage in fast mode is 73%. In assay [2], this molecule returned a Recovery from inactivation, time constant 1 of 4.1 ms; a Recovery from inactivation, time constant 2 of 170 ms; a Voltage-dependence of inactivation, V½ (mV) of -49.3 mV; a Voltage-dependence of inactivation, k (mV) of 6.1 mV. In assay [2], this molecule displayed an inactivation time constant 1 at -10 mV (two-electrode voltage clamp, oocytes) of 1 ms; an inactivation time constant 2 at -10 mV (two-electrode voltage clamp, oocytes) of 23.8 ms; a steady-state inactivation, V1/2 (midpoint) of -49.4 mV.
